The text below walks through data of paper PMC5346439.

Assay [1] addresses human MC5 (melanocortin receptor 5) (human) (UniProt P33032).
Assay [2] deals with human MC4 (melanocortin receptor 4) (human) (UniProt P32245).
The target in assay [3] is human MC3 (melanocortin receptor 3) (human) (UniProt P41968).
Assay [4] has as its target mouse MC3 (melanocortin receptor 3) (mouse) (UniProt P33033).
Chain of UniProt P33033 (P33033 whole entry): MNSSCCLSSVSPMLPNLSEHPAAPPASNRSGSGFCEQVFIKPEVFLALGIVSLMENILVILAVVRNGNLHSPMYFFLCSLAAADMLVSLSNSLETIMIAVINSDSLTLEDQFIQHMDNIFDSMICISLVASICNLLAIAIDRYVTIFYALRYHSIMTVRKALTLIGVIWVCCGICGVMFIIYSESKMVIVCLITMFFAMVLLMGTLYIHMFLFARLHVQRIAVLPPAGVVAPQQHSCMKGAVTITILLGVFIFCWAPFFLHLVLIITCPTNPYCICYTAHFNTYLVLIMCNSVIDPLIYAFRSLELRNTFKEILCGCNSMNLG

Chain of UniProt P41968 (P41968 whole entry): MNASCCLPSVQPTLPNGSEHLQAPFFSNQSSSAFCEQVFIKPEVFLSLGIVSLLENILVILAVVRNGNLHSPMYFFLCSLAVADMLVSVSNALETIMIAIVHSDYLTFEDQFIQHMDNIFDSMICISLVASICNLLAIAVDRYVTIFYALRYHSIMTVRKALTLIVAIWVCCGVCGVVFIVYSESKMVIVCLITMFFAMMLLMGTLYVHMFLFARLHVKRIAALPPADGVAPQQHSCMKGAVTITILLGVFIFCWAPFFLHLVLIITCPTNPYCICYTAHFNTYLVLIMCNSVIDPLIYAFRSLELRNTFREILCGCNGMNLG
Chain of UniProt P32245 (P32245 whole entry): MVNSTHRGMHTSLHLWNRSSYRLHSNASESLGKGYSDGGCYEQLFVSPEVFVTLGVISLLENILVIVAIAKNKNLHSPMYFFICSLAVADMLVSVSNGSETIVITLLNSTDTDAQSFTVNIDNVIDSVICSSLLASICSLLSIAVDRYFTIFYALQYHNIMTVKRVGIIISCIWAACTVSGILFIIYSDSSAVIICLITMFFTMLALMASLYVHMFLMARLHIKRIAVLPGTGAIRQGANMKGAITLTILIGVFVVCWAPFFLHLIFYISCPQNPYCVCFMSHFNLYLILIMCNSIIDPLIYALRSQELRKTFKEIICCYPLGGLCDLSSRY
Chain of UniProt P33032 (P33032 whole entry): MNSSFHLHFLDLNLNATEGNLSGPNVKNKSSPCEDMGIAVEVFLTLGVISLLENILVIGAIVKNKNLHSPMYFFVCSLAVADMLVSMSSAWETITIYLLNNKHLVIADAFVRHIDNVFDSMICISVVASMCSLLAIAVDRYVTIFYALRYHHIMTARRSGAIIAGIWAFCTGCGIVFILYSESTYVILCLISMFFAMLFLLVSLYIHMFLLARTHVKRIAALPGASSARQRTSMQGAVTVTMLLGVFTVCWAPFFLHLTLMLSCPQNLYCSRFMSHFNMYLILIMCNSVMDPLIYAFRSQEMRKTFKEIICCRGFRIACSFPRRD

Turning to ACTH (peptide), the pEC50 of cAMP production (HTRF cAMP assay) in receptor-transfected cells, with 0-30 μM fenoprofen; 6.78 at 0 μM, highest at 30 μM in assay [1] turned out to be 7.29 pEC50. Further, in assay [2], the pEC50 of cAMP production (HTRF cAMP assay) in receptor-transfected cells, with 0-30 μM fenoprofen; 8.76 at 0 μM, highest at 30 μM came to 9.25 pEC50. Moreover, the pEC50 of cAMP production (HTRF cAMP assay) in receptor-transfected cells, with 0-30 μM fenoprofen; 8.19 at 0 μM, highest at 30 μM in assay [3] is 8.87 pEC50. In assay [4], the pEC50 of cAMP production (HTRF cAMP assay) in receptor-transfected cells, with 0-30 μM fenoprofen; 8.69 at 0 μM, highest at 30 μM came to 9.03 pEC50.

Consider Lys-γ3MSH (peptide), for which the pEC50 of cAMP production (HTRF cAMP assay) in receptor-transfected cells, with 0-30 μM fenoprofen; 6.13 at 0 μM, highest at 30 μM in assay [1] was determined as 6.8 pEC50. Besides, the pEC50 of cAMP production (HTRF cAMP assay) in receptor-transfected cells, with 0-30 μM fenoprofen; 7.33 at 0 μM, highest at 30 μM in assay [2] was 7.72 pEC50. In addition, the pEC50 of cAMP production (HTRF cAMP assay) in receptor-transfected cells, with 0-30 μM fenoprofen; 8.80 at 0 μM, highest at 30 μM in assay [3] came to 9.35 pEC50. Also, the pEC50 of cAMP production (HTRF cAMP assay) in receptor-transfected cells, with 0-30 μM fenoprofen; 9.19 at 0 μM, highest at 10 μM in assay [4] was determined as 9.3 pEC50.

In assay [1], NDP-αMSH (peptide) gave a pEC50 of cAMP production (HTRF cAMP assay) in receptor-transfected cells, with 0-30 μM fenoprofen; 8.98 at 0 μM, highest at 10 μM of 9.06 pEC50. Further, the pEC50 of cAMP production (HTRF cAMP assay) in receptor-transfected cells, with 0-30 μM fenoprofen; highest at 0 μM, 10.38 at 30 μM in assay [2] was found to be 10.5 pEC50. In assay [3], this substance came in with a pEC50 of cAMP production (HTRF cAMP assay) in receptor-transfected cells, with 0-30 μM fenoprofen; 9.40 at 0 μM, highest at 30 μM of 9.66 pEC50. The pEC50 of cAMP production (HTRF cAMP assay) in receptor-transfected cells, with 0-30 μM fenoprofen; 9.78 at 0 μM, highest at 3 μM in assay [4] turned out to be 9.86 pEC50.

On to “αMSH (melanocyte-stimulating hormone) (peptide)”, for which the pEC50 of cAMP production (HTRF cAMP assay) in receptor-transfected cells, with 0-30 μM fenoprofen; 6.64 at 0 μM, highest at 30 μM in assay [1] was 7.22 pEC50. The substance further returned a pEC50 of cAMP production (HTRF cAMP assay) in receptor-transfected cells, with 0-30 μM fenoprofen; 8.38 at 0 μM, highest at 30 μM in assay [2] of 9.11 pEC50. Further, the pEC50 of cAMP production (HTRF cAMP assay) in receptor-transfected cells, with 0-30 μM fenoprofen; 7.58 at 0 μM, highest at 30 μM in assay [3] is 8.3 pEC50. Besides, the pEC50 of cAMP production (HTRF cAMP assay) in receptor-transfected cells, with 0-30 μM fenoprofen; 8.33 at 0 μM, highest at 30 μM in assay [4] was 8.86 pEC50.
